Converted amounts (≈) assume the structure as drawn. “And” between values parts separate entries of the source, which are not always exact repeats. Equal values may be shown once.
Experiments:
Type in all cases: cell-based
Staphylococcus aureus = test: Minimum inhibitory concentration on Staphylococcus aureus (liquid culture); details: for Minimum inhibitory concentration on Staphylococcus aureus: 37° C., 24 to 48 hours
Protocol: (§1) Primary screening of liquid culture: the peptides in Examples 1 to 2 were dissolved in pure water to a concentration of 100 μg/mL. Using a micropipette, 10 μL of the peptides were added to a new 96-well plate in order from left to right, starting from the second compartment. Positive and negative controls were established for use. The 96-well plates were arranged vertically, and the peptide concentrations in the control groups were the same as those of the antimicrobial peptides. The control groups included: pure water and bacteria, antimicrobial peptide FK13 and bacteria, antimicrobial peptide HPA3NT3 and bacteria, and ciprofloxacin and bacteria. An aseptic medium was used.
(§2) If a 96-deep-well plate was used to culture bacteria, an additional 100 μL of sterile medium was added to all wells.
(§3) Staphylococcus aureus was inoculated in LB medium with a normal oxygen concentration (21%) for 48 hours. Staphylococcus aureus clones were picked and incubated in LB medium at 37° C. with a normal oxygen concentration (21%) for an additional 48 hours. The bacterial concentration was measured and diluted to 107 CFU/mL with culture medium for use.
(§4) The prepared fresh bacterial suspension was diluted to 105 CFU/mL and added to the 96-well plate with 90 μL of the bacterial suspension per well. The plate was incubated at 37° C. with a normal oxygen concentration for 24 to 48 hours (Propionibacterium acnes was cultured anaerobically at 37° C. for 24 to 48 hours in an anaerobic bag). The absorbance at 630 nm was measured using a microplate reader, and the degree of turbidity was observed by the naked eye.
(§5) (iv) Repetition of Operations: The Operations in (iii) were Repeated Twice, and the Decision to Perform a Third Repetition was Based on the Reproducibility of the Experiment.

Escherichia coli = test: Minimum inhibitory concentration on Escherichia coli (liquid culture); details: for Minimum inhibitory concentration on Escherichia coli: 37° C., 24 to 48 hours
Protocol: as §1, §2
as §3, with “E. coli” for “Staphylococcus aureus”, “with” for “with a”
as §4, §5

Propionibacterium acnes = test: Minimum inhibitory concentration on Propionibacterium acnes (liquid culture); details: for Minimum inhibitory concentration on Propionibacterium acnes: anaerobic, 37° C., 24 to 48 hours
Protocol: as §1, §2
Propionibacterium acnes was inoculated on an anaerobic blood agar plate, placed in an anaerobic bag, and incubated anaerobically at 37° C. for 48 hours. Propionibacterium acnes clones were then picked and incubated anaerobically in liquid anaerobic broth medium at 37° C. for an additional 48 hours. The bacterial concentration was measured and diluted to 107 CFU/mL with culture medium.
as §4, §5

[1] = tested on: Mouse macrophage RAW264.7 cells; test: NO concentration after treatment of LPS-stimulated RAW264.7 cells; details: Dexamethasone positive control; LPS 10 ng/ml, 24 hours; replicate experiments
Protocol: (§6) (1) Mouse macrophage RAW264.7 cells were cultured in DMEM supplemented with 10% fetal bovine serum (FBS) and 1% penicillin and streptomycin (P/S) at 37° C. in a 5% CO2 incubator.
(§7) (2) 5×10^4 mouse-derived RAW264.7 macrophages were placed in 12-well cell culture plates and cultured for 24 hours. Then, 20 μL of PBS (negative control), Dexamethasone (positive control), and the test peptide were added to the wells for incubation for 2 hours. Afterward, 10 ng/ml of lipopolysaccharide (LPS) was mixed with RAW264.7 cells and incubated for 24 hours.
(§8) (3) The supernatant was collected, and NO and IL-6/IL-1ß expression levels were measured using a commercial kit.

[2] = tested on: Mouse macrophage RAW264.7 cells; test: IL-6 and IL-1β protein concentration in LPS-stimulated RAW264.7 cells (ELISA); details: Dexamethasone positive control; LPS 10 ng/ml, 24 hours; repeated experiments
Protocol: as §6, §7, §8
2. After treating RAW264.7 cells with peptide AMP-33, an ELISA kit was used to detect the concentration of IL-6 and IL-1β proteins.

[3] = tested on: rabbit blood erythrocytes; test: Measurement of hemolytic concentration; details: for Hemolysis rate: 37° C., 1 hour, replicate wells; for Minimum hemolytic concentration: rabbit erythrocytes
Protocol: 4 mL of 2% rabbit blood erythrocytes were washed twice with 4 mL PBS and centrifuged at 3000 rpm for 5 minutes. The supernatant was discarded, and the rabbit blood erythrocytes were resuspended in 4 mL PBS. 160 μg of the peptides from Examples 1 to 2, FK13, and HPA3NT3 were independently dissolved in 1 mL PBS buffer to prepare the peptide mother solutions with a concentration of 160 μg/mL. Subsequently, the peptide mother solutions were diluted with PBS buffer to concentrations of 80 μg/mL, 64 μg/mL, 32 μg/mL, 16 μg/mL, and 8 μg/mL. 100 μL of the 2% rabbit blood erythrocytes and 100 μL of different concentrations of peptides (80 μg/mL, 64 μg/mL, 32 μg/mL, 16 μg/mL, 8 μg/mL) were added to each well of a 96-well plate. In the negative control, 100 μL of PBS buffer was added, while in the positive control, 100 μL of 0.1% (w/v) Triton X-100 was added. Three replicate wells were set up for each group and incubated at 37° C. for 1 hour. The 96-well plate was then removed, centrifuged at 3000 rpm for 5 minutes, and 100 μL of supernatant was aspirated and transferred to a new 96-well plate. The absorbance was measured at 540 nm using an enzyme meter. Hemolysis rate (%)=((Absorbancesample−Absorbancenegative)/(Absorbancepositive−Absorbancenegative))*100%.

Candida albicans = test: Minimum inhibitory concentration on Candida albicans (liquid culture); details: 37° C., 24 to 48 hours
Protocol: Primary screening of liquid culture: the peptides in Examples 1 to 2 were dissolved in pure water to a concentration of 100 μg/mL. Using a micropipette, 10 μL of the peptides were added to a new 96-well plate in order from left to right, starting from the second compartment. Positive and negative controls were established for use. The 96-well plates were arranged vertically, and the peptide concentrations of the control groups were the same as those of the antimicrobial peptide. The control groups consisted of: pure water and bacteria, antimicrobial peptide FK13 and bacteria, and antimicrobial peptide HPA3NT3 and bacteria. An aseptic medium was used. The amino acid sequence of FK13 is […] (SEQ ID NO: 5), and the amino acid sequence of HPA3NT3 is […] (SEQ ID NO: 6).
as §2
as §3, with “Candida albicans was” for “Staphylococcus aureus was”, “with” for “with a”, “hours. […]” for “hours. Staphylococcus aureus”, “for” for “for an additional”
The prepared fresh bacterial suspension was diluted to 105 CFU/mL and added to the 96-well plate with 90 μL of the bacterial suspension per well, and incubated at 37° C. with normal oxygen concentration for 24 to 48 hours. The absorbance at 630 nm was measured with a microplate reader, and the degree of turbidity was observed by the naked eye.
as §5

[4] = tested on: HaCat (human immortalized epidermal cells) cells; test: Cytotoxic assay (CCK-8) in HaCat cells; details: 60 hours
Protocol: Preparation of Cell Suspension: HaCat (human immortalized epidermal cells) cells were counted and inoculated into 96-well plates. 100 μL of cell suspension was added to each well, corresponding to a density of 5×10^4 cells per well, with three replicates for each sample. The cells were cultured in a 37° C. incubator for 4 hours until they were attached to the plate. Peptides from the examples, as well as FK13 and HPA3NT3, were then added at concentrations of 80 μg/mL, 32 μg/mL, and 8 μg/mL. The cells were incubated at 37° C. for 60 hours. Afterward, 10 μL of CCK-8 solution was added, and the cells were cultured for an additional 2 hours. The absorbance of the peptides at 450 nm was measured using a dual-wavelength detector, with a detection wavelength of 450-490 nm and a reference wavelength of 600-650 nm.

| Compound | MIC (Staphylococcus aureus; Staphylococcus aureus, read-out: Minimum inhibitory concentration on Staphylococcus aureus) [µg/mL] | MIC (Escherichia coli; Escherichia coli, read-out: Minimum inhibitory concentration on Escherichia coli) [µg/mL] | MIC (Propionibacterium acnes; Cutibacterium acnes, read-out: Minimum inhibitory concentration on Propionibacterium acnes) [µg/mL] | NO concentration [1] | IL-1β protein concentration [2] | IL-6 protein concentration [2] | Minimum inhibitory concentration on Staphylococcus aureus (Staphylococcus aureus) [µg/mL] | Hemolysis rate ([3]; 8 μg/mL) | Hemolysis rate ([3]; 16 μg/mL) | Hemolysis rate ([3]; 32 μg/mL) | Hemolysis rate ([3]; 64 μg/mL) | Hemolysis rate ([3]; 80 μg/mL) | Minimum hemolytic concentration [3] [µg/mL] | Minimum inhibitory concentration on Escherichia coli (Escherichia coli) [µg/mL] | Minimum inhibitory concentration on Propionibacterium acnes (Propionibacterium acnes) [µg/mL] | Minimum inhibitory concentration on Candida albicans (Candida albicans) [µg/mL] | Maximum cytotoxicity-free concentration [4] [µg/mL] |
| --- | --- | --- | --- | --- | --- | --- | --- | --- | --- | --- | --- | --- | --- | --- | --- | --- | --- |
| O=C(O)c1cn(C2CC2)c2cc(N3CCNCC3)c(F)cc2c1=O [ciprofloxacin] | 0.25 (≈ 0.754 µM) | 0.25 (≈ 0.754 µM) | 0.25 (≈ 0.754 µM) | – | – | – | – | – | – | – | – | – | – | – | – | – | – |
| C[C@@H]1C[C@H]2[C@@H]3CCC4=CC(=O)C=C[C@]4(C)[C@@]3(F)[C@@H](O)C[C@]2(C)[C@@]1(O)C(=O)CO [Dexamethasone, reference compound] | – | – | – | 6.80 µM and 6.06 µM and 3.43 µM | 75.1 pg/mL and 44 pg/mL | 14.2 pg/mL and 23.9 pg/mL | – | – | – | – | – | – | – | – | – | – | – |
| FK13: antimicrobial peptide FK13, FPLTWLKWWKWKKK [reference compound] | – | – | – | – | – | – | 4 | 3.9% and 7.2% and 5.9% | 3.4% and 2.5% and 0.4% | 2.5% and 3.1% and 5.0% | 5.3% and 2.5% and 2.7% | 27.0% and 21.5% and 27.4% | 64.0 | 50 | 4 | 25 | 80 |
| HPA3NT3: antimicrobial peptide HPA3NT3, FKRLKKLFKKKKIWNWK [reference compound] | – | – | – | – | – | – | 4 | 2.4% and 6.2% and 4.7% | 23% and −0.2% and 0.4% | 2.7% and 1.4% and 7.8% | 21.4% and −0.8% and 0.6% | 9.7% and 8.5% and 13.7% | 64.0 | 25 | 2 | 50 | 32 |
| Example 1: GIFKKITGKLFKWIK (designated as AMP5) | – | – | – | – | – | – | 50 | 14.6% and −0.9% and 2.8% | 5.9% and 1.8% and 80.0% | 62% and 2.8% and −1.9% | 3.7% and −1.0% and 3.8% | 14.6% and −0.9% and 2.8% | 3.7 | 50 | 8 | 25 | 80 |

Source: patent US20250263441A1 (Metanovas Biotech Inc., priority 2024, published 2025)
